Columns and labels:
MS2 coat protein [1] = assay: apparent KD of MS2 coat protein, switch OFF state (with FMN for OFF switches, without FMN for ON switches); designed switch direction (-1 OFF switch, 1 ON switch): -1; higher = weaker reporter binding; conditions: FMN input: 0 or 200 uM; Eterna round: R93 (includes R88 designs)
Method in brief: (§1)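 Illumina sequencing clusters served as templates for on-chip transcription of the designed RNA switches. SNAP-549-labelled MS2 coat protein was then titrated in twofold steps from 0.7 or 1.5 nM to 3 µM, allowing 0.8–1.5 h per step at first and 10–20 min per step later. The buffer held 100 mM Tris-HCl pH 7.5, 80 mM KCl and 4 mM MgCl2, without or with constant ligand. Apparent KD is the median per design of normalised cluster binding-curve fits.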

MS2 coat protein [2] = assay: apparent KD of MS2 coat protein, switch ON state; designed switch direction (-1 OFF switch, 1 ON switch): -1; higher = weaker reporter binding; conditions: FMN input: 0 or 200 uM; Eterna round: R93 (includes R88 designs)
Method in brief: as §1

Sequence	apparent KD of MS2 coat protein (MS2 coat protein [1]) [nM]	apparent KD of MS2 coat protein (MS2 coat protein [2]) [nM]
AAGAAUAGAGGAUAUACAAGGAAGAAAGAAAAGAAAAGAAAACAUGAGGAUCACCCAUGUAGAAGGCUAUAGAA [EteRNA is fun!]	26.2	30.9
AGAAAACAUGAGGAUCACCCAUGUGAGGAUAUCGAUGUCCAAAAAAAAGUGCGGGACUCGAGAAGGCACUUGGG	33.7	38.9
AAGAAACAUGAGGAUCACCCAUGUGAGGAUAUCCAAGAAAGAAAGAAAGAAAGAAGAAGGAGAAGGCACAAAGG [Quintus Ostorius Scapula]	119	50.5
AAAAAACAUGAGGAUCACCCAUGUAAGGAUAUGCAAGCAAGAAGAAAGAACAGAAAAAGCAGAAGGUACACACA [Amethyst 73]	25	22.4
AACUGACAUGAGGAUCACCCAUGUCAGGAUAUGAUUUGACGAAAAAAAAAAAGUCAUAUCAGAAGGGACAUGGA [Design 81: Sub-opt UB]	41.5	24.7
AGAAAACAUGAGGAUCACCCAUGUGAGGAUAUCGAAAAGAAAAGAAAAGAAAGAAGAAUGAGAAGGCACAAGAA [Khaba]	28.1	29.5
CUCAUGUUAGGAUAUAUAUGAAAUGAAGUGAAAGAAAAGAAAUAGAAGGAACAUGAGGAUCACCCAUGUUAGAA [EteRNA is fun!]	32.6	51
AAAAAGUGAGGAUAUCCAGAUAAAAAAACGAAAAAAAAUCUGGAGAAGGCACAUGAGGAUCACCCAUGUAUGAC [Ex 4 May 6]	38.2	32.7
AGCUAGUCAGGAUAUACGAGAAAGAAAGAAGACGUGAAGGGACAUGAGGAUCACCCAUGUAGAAGGGACUAGCA [Diamond 26]	67.1	30.3
AAAACGUGAGGAUAUGCACCAAAAAAGGAAAAACGGGUACGACAUGAGGAUCACCCAUGUAGAAGGCACGAAAA [Frodo Flailing 9 - Jieux - Exclusion 2]	39	40.8
GUCAGCUGAGGAUAUACAGGUGAGGCCGCAUAACAAAAUAUACAUGAGGAUCACCCAUGUAGAAGGCGGAAGAC [Soreramare]	47.6	41.1
GUAGUGUGAGGAUAUGAUUAAAAGAAGGGAAAGAGACUGCAUCAGAAGGCACAUGAGGAUCACCCAUGUAUGAA [JR_Exc004_Sub1223]	45.7	34.3
AACAUGUUAGGAUAUUCAAGAAAAGAAAAGAAAGAAAAGAAGAAGAAGGAACAUGAGGAUCACCCAUGUAAGAA [EteRNA is fun!]	27.1	33.3
AAAUUGUCAGGAUAUGUACGAACAACAAAACAAAUAACGGUACAGAAGGGACAUGAGGAUCACCCAUGUAUAAA [May 72]	73.2	65.8
AGCUAGUGAGGAUAUACGAACAUGUCAAAAGACGUGAAGAAACAUGAGGAUCACCCAUGUAGAAGGCACUAGCA [Mat - Exclusion 2 - JL-Eli mod - D55]	14.9	15.5
AAAAUGUCAGGAUAUGUAGCAUGAUACGAAAGUAUCAUGCUACAGAAGGGACAUGAGGAUCACCCAUGUGAUCA [Ex4: 939]	45	59.7
AACUAGUGAGGAUAUACAAGAAAAAAAAAAAAAAUAAAGGGACAUGAGGAUCACCCAUGUAGAAGGCACUAACA [Diamond 69]	64.9	37.7
AAGAAACGAGGAUAUACAAAAUAAAAGAAAAGAAAGAAAGAACAUGAGGAUCACCCAUGUAGAAGGCGUAAGAA [Wahibre Ibiau]	30.3	44.6
AACAAGACAGGAUAUACAUGAGGAUCACCCAUGUGAGAAUUAAGUGGCGUACCACAAGGUAGAAGGGUCAUGGA [Ruby 3]	57.6	34.2
AAGAAGGAAGGAUAUACAUGAGGAUCACCCAUGUAAAAGAAAGAAAGGGAAAAGAAAAGUAGAAGGUCCAAGAA [Aakheperre Setepenre Osorkon]	38.7	25.4
CAGUACUGAGGAUAUACAUGAGGAUCACCCAUGUGGUCAAGCUAGGAAACUAGCAAAUGUAGAAGGCAGUACUG [Ex3: 812]	35.6	80.9
AAAAAGUGAGGAUAUACAUGAGGAUCACCCAUGUGUUAAAAAAAAAGGGUGGAAGAAAGUAGAAGGCACCAAAA [Ex 3 May 50]	22.9	33.7
AUAAAACAUGAGGAUCACCCAUGUGAGGAUAUCCUAAAAGAAAGAAAAAAAAAAAAAUGGAGAAGGCACAAUAA [Amethyst 47]	159	119

Sequence	apparent KD of MS2 coat protein (MS2 coat protein [1]) [nM]	apparent KD of MS2 coat protein (MS2 coat protein [2]) [nM]
AAAAAACAUGAGGAUCACCCAUGUAAGGAUAUGCGAAAAUAAAAUAAAAUAAAAUAAAGCAGAAGGUACAAAAA [66%, Wbt, 1]	37.7	32.6
AAAACGGUAGGAUAUACAGUCCGUUGUCGAAUGAUGAAAAGACAUGAGGAUCACCCAUGUAGAAGGACCGAAAA [Bienor]	138	36.5
AAGAUGUGAGGAUAUGCUGCUCGUCACAAAAGUGAUGAGUAGCAGAAGGUACAUGAGGAUCACCCAUGUAAAGA [JL eternac mod 7]	20.9	32.4
AACGCGUCAGGAUAUAGCAUAAAUUACGUAGUACGACCAUACUAGAAGGGACAUGAGGAUCACCCAUGUGGGUA [JR_Exc004_Sub207]	90.4	167
GCUGGCGUAGGAUAUACAUGAGGAUCACCCAUGUGAGAGAAAAAAGUGAGAAAGAAAAGUAGAAGGACGUUAGG [salish99-ex3-116]	106	40.4
AGGGAGUAAGGAUAUGCAUAUAAUGAAGAGAAAGAAAAGAAGCAGAAGGUACAUGAGGAUCACCCAUGUAAAAA [milkweed 2]	22.7	28.4
CUCAUGUCAGGAUAUCAGUAGUAAAAAAAUAAAAUUACUACUGAGAAGGGACAUGAGGAUCACCCAUGUCAAAA [EX4 363: Super Stable 63]	19.8	20.7
AAGAACGGAGGAUAUACAUGAAAGAAAGAAAAGAAAAGAAAACAUGAGGAUCACCCAUGUAGAAGGCCGAAGAA [EteRNA is fun!]	53.3	23.4
AAAAAGUCAGGAUAUGCGAAGGCGUCUGAUAGACGAGGCUAGCAGAAGGGACAUGAGGAUCACCCAUGUAAAGA [Mat - Exclusion 4 - D82]	51.3	50
CCUGGCUUAGGAUAUACAGGAACCGGGAACCCGGAAGUGAAACAUGAGGAUCACCCAUGUAGAAGGAAGAAAGC [Leusanzaus]	19.1	23.9
AAAAAGAGAGGAUAUACAUGAGGAUCACCCAUGUGACACAAAAAAAAAAAAAAAAAAUGUAGAAGGCUCAAAAA [65%, Moding Exclusion3-cac2, 18]	97.2	35.5
AAAAAGAUAGGAUAUACAUGAAAAAAAAAAAAAAAAAAAAGACAUGAGGAUCACCCAUGUAGAAGGGUCAAAAA [water's exclusion 2 2nd]	42.1	50.3
AAAUAACAUGAGGAUCACCCAUGUUAGGAUAUCUAAAUGGUGUAAACACCAGAAGAUGAGAGAAGGGACGUGGA [Enlalees]	25.1	17.9
AUCAUGUAAGGAUAUUUAAGAAAAGAAAAGAAAGAAAAGAAAAAGAAGGUACAUGAGGAUCACCCAUGUAAGAA [EteRNA is fun!]	18.9	27.1
AAAAGUUGAGGAUAUACAAAAUGAUUGCGAAAUCAAUUAAAACAUGAGGAUCACCCAUGUAGAAGGCGAUAAAA [Banishment 4 - Jieux - Exclusion 2]	21.6	27
AAGGGACAUGAGGAUCACCCAUGUCAGGAUAUCGGAAAAGGAAAAAAAAAAAAGAAGACGAGAAGGGACACCAA	26.8	28.6
AAAAGUACAGGAUAUACAUGAGGAUCACCCAUGUGAAAAUUAAGUGGCGUACAACAAAGUAGAAGGGUACUGGA [Ruby 52]	44.6	20.7
AAAAAUGGAGGAUAUACAUGAGGAUCACCCAUGUGUAACUAUACUAAGCGCUCCUCACGUAGAAGGCCAAAAAA [Gilly Gone Silly 14 - Jieux - Exclusion 3]	31.4	74.1
AGUAGUACAGGAUAUACAUGAGGAUCACCCAUGUGAGAAUUAAGUGGCGUACCACAAAGUAGAAGGGUACUACA [Mat - Exclusion 3 - JL mod - D38]	211	40.1
AAAAAGCGAGGAUAUACGAGUCAAAGAAAAGACAAGGAGAAACAUGAGGAUCACCCAUGUAGAAGGCGCAAAAA [Fiskers exclusion D2]	25.3	21.8
CUCUUGUGAGGAUAUCGAAGAAAAGAAAAGAAAGAAAAGAACGAGAAGGCACAUGAGGAUCACCCAUGUAAGAA [EteRNA is fun!]	61.8	53.1
ACUAAUGAAGGAUAUACAAACAAAAAAAAAACAACAAACAAACAUGAGGAUCACCCAUGUAGAAGGUCAAAAAU [JR_Exc002_Sub1202]	17.8	22.2
AAAAAUAGAGGAUAUACAUGAAAAAAAAAAAAAAAAAAAAAACAUGAGGAUCACCCAUGUAGAAGGCUAAAAAA [double AU!]	29.2	30.8

Reference: the supplement of paper PMC9170038
